Source: patent US7354588B1, “Functional derivatives of ICAM-1 with altered ability to bind LFA-1 or HRV” (Dana Farber Cancer Institute, priority 1987, dated 2008)

B1: S3VS/AGL (protein, UniProt P05362 28-532, looked up, variant S3A V4G S5L)
Intercellular adhesion …: QTAGLPSKVILPRGGSVLVTCSTSCDQPKLLGIETPLPKKELLLPGNNRKVYELSNVQEDSQPMCYSNCPDGQSTAKTFLTVYWTPERVELAPLPSWQPVGKNLTLRCQVEGGAPRANLTVVLLRGEKELKREPAVGEPAEVTTTVLVRRDHHGANFSCRTELDLRPQGLELFENTSAPYQLQTFVLPATPPQLVSPRVLEVDTQGTVVCSLDGLFPVSEAQVHLALGDQRLNPTVTYGNDSFSAKASVSVTAEDEGTQRLTCAVILGNQSQETLQTVTIYSFPAPNVILTKPEVSEGTEVTVKCEAHPRAKVTLNGVPAQPLGPRAQLLLKATPEDNGRSFSCSATLEVAGQLIHKNQTRELRVLYGPRLDERDCPGNWTWPENSQQTPMCQAWGNPLPELKCLKDGTFPLPIGESVTVTRDLEGTYLCRARSTQGEVTRKVTVNVLSPRYEIVIITVVAAAVIMGTAGLSTYLYNRQRKIKKYRLQQAQKGTPMKPNTQATPP
B2: D71GQS/NGEL (protein, UniProt P05362 28-532, looked up, variant D71N Q73E S74L)
Intercellular adhesion …: QTSVSPSKVILPRGGSVLVTCSTSCDQPKLLGIETPLPKKELLLPGNNRKVYELSNVQEDSQPMCYSNCPNGELTAKTFLTVYWTPERVELAPLPSWQPVGKNLTLRCQVEGGAPRANLTVVLLRGEKELKREPAVGEPAEVTTTVLVRRDHHGANFSCRTELDLRPQGLELFENTSAPYQLQTFVLPATPPQLVSPRVLEVDTQGTVVCSLDGLFPVSEAQVHLALGDQRLNPTVTYGNDSFSAKASVSVTAEDEGTQRLTCAVILGNQSQETLQTVTIYSFPAPNVILTKPEVSEGTEVTVKCEAHPRAKVTLNGVPAQPLGPRAQLLLKATPEDNGRSFSCSATLEVAGQLIHKNQTRELRVLYGPRLDERDCPGNWTWPENSQQTPMCQAWGNPLPELKCLKDGTFPLPIGESVTVTRDLEGTYLCRARSTQGEVTRKVTVNVLSPRYEIVIITVVAAAVIMGTAGLSTYLYNRQRKIKKYRLQQAQKGTPMKPNTQATPP
B3: E111GGA/KAGS (protein, UniProt P05362 28-532, looked up, variant E111K G112A A114S)
Intercellular adhesion …: QTSVSPSKVILPRGGSVLVTCSTSCDQPKLLGIETPLPKKELLLPGNNRKVYELSNVQEDSQPMCYSNCPDGQSTAKTFLTVYWTPERVELAPLPSWQPVGKNLTLRCQVKAGSPRANLTVVLLRGEKELKREPAVGEPAEVTTTVLVRRDHHGANFSCRTELDLRPQGLELFENTSAPYQLQTFVLPATPPQLVSPRVLEVDTQGTVVCSLDGLFPVSEAQVHLALGDQRLNPTVTYGNDSFSAKASVSVTAEDEGTQRLTCAVILGNQSQETLQTVTIYSFPAPNVILTKPEVSEGTEVTVKCEAHPRAKVTLNGVPAQPLGPRAQLLLKATPEDNGRSFSCSATLEVAGQLIHKNQTRELRVLYGPRLDERDCPGNWTWPENSQQTPMCQAWGNPLPELKCLKDGTFPLPIGESVTVTRDLEGTYLCRARSTQGEVTRKVTVNVLSPRYEIVIITVVAAAVIMGTAGLSTYLYNRQRKIKKYRLQQAQKGTPMKPNTQATPP
B4: Q62PM/API (protein, UniProt P05362 28-532, looked up, variant Q62A M64I)
Intercellular adhesion …: QTSVSPSKVILPRGGSVLVTCSTSCDQPKLLGIETPLPKKELLLPGNNRKVYELSNVQEDSAPICYSNCPDGQSTAKTFLTVYWTPERVELAPLPSWQPVGKNLTLRCQVEGGAPRANLTVVLLRGEKELKREPAVGEPAEVTTTVLVRRDHHGANFSCRTELDLRPQGLELFENTSAPYQLQTFVLPATPPQLVSPRVLEVDTQGTVVCSLDGLFPVSEAQVHLALGDQRLNPTVTYGNDSFSAKASVSVTAEDEGTQRLTCAVILGNQSQETLQTVTIYSFPAPNVILTKPEVSEGTEVTVKCEAHPRAKVTLNGVPAQPLGPRAQLLLKATPEDNGRSFSCSATLEVAGQLIHKNQTRELRVLYGPRLDERDCPGNWTWPENSQQTPMCQAWGNPLPELKCLKDGTFPLPIGESVTVTRDLEGTYLCRARSTQGEVTRKVTVNVLSPRYEIVIITVVAAAVIMGTAGLSTYLYNRQRKIKKYRLQQAQKGTPMKPNTQATPP
B5: H152HGA/EEGS (protein, UniProt P05362 28-532, looked up, variant H152E H153E A155S)
Intercellular adhesion …: QTSVSPSKVILPRGGSVLVTCSTSCDQPKLLGIETPLPKKELLLPGNNRKVYELSNVQEDSQPMCYSNCPDGQSTAKTFLTVYWTPERVELAPLPSWQPVGKNLTLRCQVEGGAPRANLTVVLLRGEKELKREPAVGEPAEVTTTVLVRRDEEGSNFSCRTELDLRPQGLELFENTSAPYQLQTFVLPATPPQLVSPRVLEVDTQGTVVCSLDGLFPVSEAQVHLALGDQRLNPTVTYGNDSFSAKASVSVTAEDEGTQRLTCAVILGNQSQETLQTVTIYSFPAPNVILTKPEVSEGTEVTVKCEAHPRAKVTLNGVPAQPLGPRAQLLLKATPEDNGRSFSCSATLEVAGQLIHKNQTRELRVLYGPRLDERDCPGNWTWPENSQQTPMCQAWGNPLPELKCLKDGTFPLPIGESVTVTRDLEGTYLCRARSTQGEVTRKVTVNVLSPRYEIVIITVVAAAVIMGTAGLSTYLYNRQRKIKKYRLQQAQKGTPMKPNTQATPP
B6: Q58EDS/AKDI (protein, UniProt P05362 28-532, looked up, variant Q58A E59K S61I)
Intercellular adhesion …: QTSVSPSKVILPRGGSVLVTCSTSCDQPKLLGIETPLPKKELLLPGNNRKVYELSNVAKDIQPMCYSNCPDGQSTAKTFLTVYWTPERVELAPLPSWQPVGKNLTLRCQVEGGAPRANLTVVLLRGEKELKREPAVGEPAEVTTTVLVRRDHHGANFSCRTELDLRPQGLELFENTSAPYQLQTFVLPATPPQLVSPRVLEVDTQGTVVCSLDGLFPVSEAQVHLALGDQRLNPTVTYGNDSFSAKASVSVTAEDEGTQRLTCAVILGNQSQETLQTVTIYSFPAPNVILTKPEVSEGTEVTVKCEAHPRAKVTLNGVPAQPLGPRAQLLLKATPEDNGRSFSCSATLEVAGQLIHKNQTRELRVLYGPRLDERDCPGNWTWPENSQQTPMCQAWGNPLPELKCLKDGTFPLPIGESVTVTRDLEGTYLCRARSTQGEVTRKVTVNVLSPRYEIVIITVVAAAVIMGTAGLSTYLYNRQRKIKKYRLQQAQKGTPMKPNTQATPP
B7: R149RD/EEG (protein, UniProt P05362 28-532, looked up, variant R149E R150E D151G)
Intercellular adhesion …: QTSVSPSKVILPRGGSVLVTCSTSCDQPKLLGIETPLPKKELLLPGNNRKVYELSNVQEDSQPMCYSNCPDGQSTAKTFLTVYWTPERVELAPLPSWQPVGKNLTLRCQVEGGAPRANLTVVLLRGEKELKREPAVGEPAEVTTTVLVEEGHHGANFSCRTELDLRPQGLELFENTSAPYQLQTFVLPATPPQLVSPRVLEVDTQGTVVCSLDGLFPVSEAQVHLALGDQRLNPTVTYGNDSFSAKASVSVTAEDEGTQRLTCAVILGNQSQETLQTVTIYSFPAPNVILTKPEVSEGTEVTVKCEAHPRAKVTLNGVPAQPLGPRAQLLLKATPEDNGRSFSCSATLEVAGQLIHKNQTRELRVLYGPRLDERDCPGNWTWPENSQQTPMCQAWGNPLPELKCLKDGTFPLPIGESVTVTRDLEGTYLCRARSTQGEVTRKVTVNVLSPRYEIVIITVVAAAVIMGTAGLSTYLYNRQRKIKKYRLQQAQKGTPMKPNTQATPP
B8: V136GE/GVK (protein, UniProt P05362 28-532, looked up, variant V136G G137V E138K)
Intercellular adhesion …: QTSVSPSKVILPRGGSVLVTCSTSCDQPKLLGIETPLPKKELLLPGNNRKVYELSNVQEDSQPMCYSNCPDGQSTAKTFLTVYWTPERVELAPLPSWQPVGKNLTLRCQVEGGAPRANLTVVLLRGEKELKREPAGVKPAEVTTTVLVRRDHHGANFSCRTELDLRPQGLELFENTSAPYQLQTFVLPATPPQLVSPRVLEVDTQGTVVCSLDGLFPVSEAQVHLALGDQRLNPTVTYGNDSFSAKASVSVTAEDEGTQRLTCAVILGNQSQETLQTVTIYSFPAPNVILTKPEVSEGTEVTVKCEAHPRAKVTLNGVPAQPLGPRAQLLLKATPEDNGRSFSCSATLEVAGQLIHKNQTRELRVLYGPRLDERDCPGNWTWPENSQQTPMCQAWGNPLPELKCLKDGTFPLPIGESVTVTRDLEGTYLCRARSTQGEVTRKVTVNVLSPRYEIVIITVVAAAVIMGTAGLSTYLYNRQRKIKKYRLQQAQKGTPMKPNTQATPP

How the values were obtained:
RR1/1 mAb = assay: Indirect immunofluorescence flow cytofluorometry: mAb RR1/1 binding to COS cells expressing ICAM-1 mutants (SLFI, % CL203); assay type: cell-based; details: SLFI normalized to CL203 SLFI of the mutant
Method in brief: (§1)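 Transfected COS cells expressing ICAM-1 point mutants were stained by indirect immunofluorescence and analysed by flow cytometry. Specific linear fluorescence intensity of CL203 is expressed relative to wild-type CL203; RR1/1, R6.5 and LB-2 SLFI are expressed relative to CL203 SLFI of the same mutant.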

LB-2 mAb = assay: Indirect immunofluorescence flow cytofluorometry: mAb LB-2 binding to COS cells expressing ICAM-1 mutants (SLFI, % CL203); assay type: cell-based; details: SLFI normalized to CL203 SLFI of the mutant
Method in brief: as §1

HRV14 = assay: Binding of [^35S]-Met labeled HRV14 to COS cells expressing ICAM-1 mutants; assay type: cell-based, human rhinovirus 14; details: 35S met-labeled HRV14 binding to COS cells expressing ICAM-1 mutant; normalized for percent of cells expressing mutant and for wild type binding; mean
LFA-1 = target: T1, LFA-1 (Homo sapiens, UniProt P05107+P20701); assay: Adherence of COS cells expressing ICAM-1 or ICAM-1 mutants to plastic-bound purified LFA-1; assay type: cell-based; details: COS cells expressing ICAM-1 mutant adhering to LFA-1 coated plastic; normalized for percent of cells expressing mutant and for wild type binding; mean
T1 construct: endogenous in cells

CL203 mAb = assay: Indirect immunofluorescence flow cytofluorometry: mAb CL203 binding to COS cells expressing ICAM-1 mutants (SLFI, % WT); assay type: cell-based; details: SLFI of CL203 for mutant normalized to wild type CL203 SLFI; level of expression
Method in brief: as §1

R6.5 mAb = assay: Indirect immunofluorescence flow cytofluorometry: mAb R6.5 binding to COS cells expressing ICAM-1 mutants (SLFI, % CL203); assay type: cell-based; details: SLFI normalized to CL203 SLFI of the mutant
Method in brief: as §1

T1 sequence (P20701 26-1170): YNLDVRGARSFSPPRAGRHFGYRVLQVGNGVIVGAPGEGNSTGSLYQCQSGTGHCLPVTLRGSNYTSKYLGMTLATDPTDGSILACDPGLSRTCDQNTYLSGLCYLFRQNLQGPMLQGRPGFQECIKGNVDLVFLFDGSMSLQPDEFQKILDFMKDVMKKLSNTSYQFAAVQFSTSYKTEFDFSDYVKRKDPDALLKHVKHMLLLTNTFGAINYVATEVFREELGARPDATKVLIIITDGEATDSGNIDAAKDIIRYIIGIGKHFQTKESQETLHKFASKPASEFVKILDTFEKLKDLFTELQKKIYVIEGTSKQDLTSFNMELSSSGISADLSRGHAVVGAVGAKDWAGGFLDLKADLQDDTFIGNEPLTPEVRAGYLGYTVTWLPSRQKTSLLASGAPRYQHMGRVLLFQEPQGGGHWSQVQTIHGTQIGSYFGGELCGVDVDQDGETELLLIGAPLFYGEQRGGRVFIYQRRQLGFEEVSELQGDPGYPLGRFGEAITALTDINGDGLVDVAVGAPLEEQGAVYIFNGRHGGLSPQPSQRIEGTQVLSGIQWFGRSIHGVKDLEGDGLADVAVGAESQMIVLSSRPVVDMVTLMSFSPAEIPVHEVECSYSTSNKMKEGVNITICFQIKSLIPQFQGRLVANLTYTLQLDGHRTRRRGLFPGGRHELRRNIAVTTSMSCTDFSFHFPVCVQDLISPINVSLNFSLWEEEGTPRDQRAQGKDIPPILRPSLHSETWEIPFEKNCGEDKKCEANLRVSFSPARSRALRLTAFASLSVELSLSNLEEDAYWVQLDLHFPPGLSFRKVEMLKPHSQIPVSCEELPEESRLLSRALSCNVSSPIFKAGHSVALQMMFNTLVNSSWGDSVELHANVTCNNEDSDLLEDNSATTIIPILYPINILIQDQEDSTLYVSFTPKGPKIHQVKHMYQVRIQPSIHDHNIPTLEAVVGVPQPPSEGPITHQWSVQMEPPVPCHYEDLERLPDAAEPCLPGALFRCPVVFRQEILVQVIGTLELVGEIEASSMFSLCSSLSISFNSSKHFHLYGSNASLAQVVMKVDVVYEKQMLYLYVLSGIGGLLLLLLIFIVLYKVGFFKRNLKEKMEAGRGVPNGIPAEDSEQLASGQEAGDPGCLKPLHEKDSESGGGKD
T1 sequence (P05107 23-769): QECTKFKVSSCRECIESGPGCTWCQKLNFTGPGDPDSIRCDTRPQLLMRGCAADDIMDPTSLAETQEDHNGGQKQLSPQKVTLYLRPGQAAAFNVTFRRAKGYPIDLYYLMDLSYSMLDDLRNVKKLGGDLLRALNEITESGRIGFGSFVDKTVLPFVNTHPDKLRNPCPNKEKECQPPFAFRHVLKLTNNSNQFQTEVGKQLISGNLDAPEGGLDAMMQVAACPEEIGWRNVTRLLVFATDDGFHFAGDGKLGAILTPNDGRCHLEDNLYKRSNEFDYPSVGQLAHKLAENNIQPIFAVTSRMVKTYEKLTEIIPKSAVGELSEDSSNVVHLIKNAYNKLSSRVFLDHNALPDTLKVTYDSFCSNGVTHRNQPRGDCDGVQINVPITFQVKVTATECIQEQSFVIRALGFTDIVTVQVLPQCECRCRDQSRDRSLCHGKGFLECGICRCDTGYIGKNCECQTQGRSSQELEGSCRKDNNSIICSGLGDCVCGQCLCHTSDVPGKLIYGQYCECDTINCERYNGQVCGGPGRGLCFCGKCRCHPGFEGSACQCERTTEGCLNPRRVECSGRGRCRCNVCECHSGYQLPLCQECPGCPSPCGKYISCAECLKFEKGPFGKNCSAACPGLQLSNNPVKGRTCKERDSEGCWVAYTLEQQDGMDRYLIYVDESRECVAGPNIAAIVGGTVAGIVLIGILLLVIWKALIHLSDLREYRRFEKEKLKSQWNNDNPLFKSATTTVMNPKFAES

Molecule | SLFI (% CL203) RR/1 (RR1/1 mAb) | SLFI (% CL203) LB-2 (LB-2 mAb) | HRV Binding % (HRV14) | LFA-1 Binding % (LFA-1) | Cl203 % WT (SLFI) (CL203 mAb) | SLFI (% CL203) R6.5 (R6.5 mAb)
B1 | 5 % CL203 | 9 % CL203 | 61% | 18% | 121 % WT | 31 % CL203
B2 | 0 % CL203 | 26 % CL203 | 21% | 1% | 161 % WT | 48 % CL203
B3 | 81 % CL203 | 89 % CL203 | 162% | 103% | 122 % WT | 0 % CL203
B4 | 59 % CL203 | 73 % CL203 | 182% | 104% | 200 % WT | 81 % CL203
B5 | 103 % CL203 | 112 % CL203 | 82% | 85% | 94 % WT | 94 % CL203
B6 | 10 % CL203 | 7 % CL203 | 0% | 3% | 98 % WT | 22 % CL203
B7 | 166 % CL203 | 166 % CL203 | 139% | 81% | 159 % WT | 189 % CL203
B8 | 220 % CL203 | 138 % CL203 | 117% | 92% | 171 % WT | 172 % CL203
